These results are taken from patent US20020151497.

The target of data set [1] is T1, CD19, endogenous, immunoprecipitated from WEHI-231 cells (UniProt P25918).
T1 sequence: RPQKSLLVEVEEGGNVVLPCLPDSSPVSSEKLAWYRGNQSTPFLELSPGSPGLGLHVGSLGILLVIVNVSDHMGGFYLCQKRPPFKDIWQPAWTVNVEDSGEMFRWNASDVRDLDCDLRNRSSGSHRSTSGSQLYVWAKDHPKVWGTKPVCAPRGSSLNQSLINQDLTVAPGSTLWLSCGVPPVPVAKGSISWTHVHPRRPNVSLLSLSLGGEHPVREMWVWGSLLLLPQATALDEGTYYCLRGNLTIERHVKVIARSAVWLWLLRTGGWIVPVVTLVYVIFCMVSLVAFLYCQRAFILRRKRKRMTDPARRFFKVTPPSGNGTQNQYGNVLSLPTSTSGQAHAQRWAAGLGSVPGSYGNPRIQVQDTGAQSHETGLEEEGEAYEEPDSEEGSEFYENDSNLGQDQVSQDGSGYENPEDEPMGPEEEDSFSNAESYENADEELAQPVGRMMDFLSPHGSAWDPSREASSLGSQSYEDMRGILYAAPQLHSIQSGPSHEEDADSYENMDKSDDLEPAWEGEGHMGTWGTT

Data set [2] has as its target Lyn-kinase, endogenous, immunoprecipitated from WEHI-231 cells (UniProt P25911).
The target in data set [3] is Syk, endogenous, from WEHI-231 cells (UniProt P48025).
Syk, endogenous, from WEHI-231 cells, sequence (P48025 whole entry, looked up): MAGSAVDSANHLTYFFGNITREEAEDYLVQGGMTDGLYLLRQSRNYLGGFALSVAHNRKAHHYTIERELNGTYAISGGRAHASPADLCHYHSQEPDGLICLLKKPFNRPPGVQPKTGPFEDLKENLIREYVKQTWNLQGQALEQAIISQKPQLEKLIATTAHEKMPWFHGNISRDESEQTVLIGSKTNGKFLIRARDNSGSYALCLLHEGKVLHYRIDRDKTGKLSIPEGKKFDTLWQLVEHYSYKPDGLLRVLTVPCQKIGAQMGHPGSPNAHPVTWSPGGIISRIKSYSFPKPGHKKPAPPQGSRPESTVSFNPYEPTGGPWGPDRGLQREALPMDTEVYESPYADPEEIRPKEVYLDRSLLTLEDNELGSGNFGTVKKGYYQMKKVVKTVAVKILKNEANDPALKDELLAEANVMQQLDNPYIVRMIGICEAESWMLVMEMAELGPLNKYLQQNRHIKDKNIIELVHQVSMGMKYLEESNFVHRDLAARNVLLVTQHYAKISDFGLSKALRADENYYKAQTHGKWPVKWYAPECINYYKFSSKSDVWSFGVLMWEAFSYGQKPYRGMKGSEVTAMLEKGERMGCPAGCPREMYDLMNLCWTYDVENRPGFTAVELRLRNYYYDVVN

Lyn-kinase, endogenous, immunoprecipitated from WEHI-231 cells, sequence (P25911 whole entry, looked up): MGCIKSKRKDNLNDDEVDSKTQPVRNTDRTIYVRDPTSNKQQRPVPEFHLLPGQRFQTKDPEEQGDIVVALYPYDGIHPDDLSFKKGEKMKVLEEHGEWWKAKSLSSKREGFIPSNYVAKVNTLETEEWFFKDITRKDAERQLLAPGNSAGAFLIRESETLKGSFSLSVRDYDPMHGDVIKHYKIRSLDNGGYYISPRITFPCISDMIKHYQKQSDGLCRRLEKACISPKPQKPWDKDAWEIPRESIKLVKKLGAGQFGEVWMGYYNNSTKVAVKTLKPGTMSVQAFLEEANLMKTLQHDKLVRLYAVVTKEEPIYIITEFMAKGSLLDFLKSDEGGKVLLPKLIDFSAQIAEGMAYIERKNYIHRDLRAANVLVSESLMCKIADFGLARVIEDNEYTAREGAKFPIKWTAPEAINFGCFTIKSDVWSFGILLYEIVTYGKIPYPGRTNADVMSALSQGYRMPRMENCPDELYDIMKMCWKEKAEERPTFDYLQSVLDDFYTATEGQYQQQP

In the case of “exogenous Lyn (5 units added to the kinase assay)”, the “phosphorylation level of immunoprecipitated CD19 (anti-phosphotyrosine Western blot) with exogenous Lyn and 0, 10, 50 and 100 µM K055H302” value in data set [1] was “Lyn, CD19 and Syk all showed dose-dependent decreased phosphorylation in the presence of the compound of the invention”. The “phosphorylation level of immunoprecipitated Lyn (anti-phosphotyrosine Western blot) with exogenous Lyn and 0, 10, 50 and 100 µM K055H302” value in data set [2] was “Lyn, CD19 and Syk all showed dose-dependent decreased phosphorylation in the presence of the compound of the invention”. Also, the “phosphorylation level of immunoprecipitated Syk (anti-phosphotyrosine Western blot) with exogenous Lyn and 0, 10, 50 and 100 µM K055H302” value in data set [3] is “Lyn, CD19 and Syk all showed dose-dependent decreased phosphorylation in the presence of the compound of the invention”.
